The values below come from US5134121A, “Nerve growth factor peptides” (Regents of the University of California, priority 1991, dated 1992).

Where a SMILES comes first, the peptide text is derived from it.

The subject of data set [1] is embryologic day 10 dorsal root ganglia neurons. The data set can be described thus: Nonspecific toxicity: NGF-independent neurite outgrowth in response to CNTF. The class given is cell-based, chick. The conditions noted are these: up to 2.6 μmoles/ml, FIG. 3. As for the experimental part:
Potential nonspecific toxicity of peptide C5 (KGKE) was investigated with embryologic day 10 dorsal root ganglia neurons which also extend neurites in the presence of ciliary neurotrophic factor (CNTF) The effect of peptide C5 on NGF-independent neurite outgrowth was assessed.

Data set [2] in a line: Resistance to proteolysis during cell culture. The class given is in vitro ADME. Conditions: 2.0 μmole/ml in culture medium with cells and 100 pg/ml NGF, 24 hr, HPLC. On the procedure:
The resistance of peptide C5 to proteolytic cleavage during cell culture was assessed. Quadruplicate wells were prepared each containing 2.0 μmole/ml of peptide in culture medium, 100 pg/ml NGF and cells as described above. After 24 hr in culture, 320 ul (4 wells×80 ul) of culture medium were collected. Fresh culture medium containing 2.0 μmole/ml of peptide was also prepared. Both samples of peptide-containing medium were filtered through a Centricon membrane (Amicon, Bedford) with a molecular weight cutoff of 10,000. 250 μl of filtrate was loaded onto a C18 uBondapak analytic HPLC column and run under the same conditions described above for peptide purification. The quantity of peptides in fresh compared to post-culture medium was determined by integration of their absorbance peaks. After 24 hr in culture, more than 80-85% of the initial quantity of peptide C5 was recovered..

For data set [3], the system named is dissociated embryonic chick dorsal root ganglia neurons. The data set can be described thus: NGF bioassay: support of neurite outgrowth/neuronal survival without NGF (agonist activity). The class given is cell-based. The conditions noted are these: 24 hr culture. The text has this:
After synthesis, the peptides of the present invention may then be assayed to determine their activity in the NGF bioassay using dissociated embryonic chick dorsal root ganglia neurons according to published procedures, such as, for example, Riopelle et al, (1981) J Neurobiol 12:175-186 or Varon et al (1981) Dev Brain Res 1:73-87. […] If the peptide of interest is capable of inhibiting neuronal attachment, survival or neurite outgrowth in the presence of NGF, the peptide is defined as an antagonist. Similarly, if the peptide is capable of supporting neuronal attachment, survival or neurite outgrowth in the absence of NGF, it is defined as an agonist.
NGF bioassays using dissociated embryonic chick dorsal root ganglia neurons have been described (Varon et al, (1981) Dev Brain Res 1:73-87); Riopelle et al, (1981) J Neurobiol 12:175-186). Approximately 30 dorsal root ganglia were dissected from each developmental day 8 chick embryo. […] During this incubation, non-neurons more readily attach to the substratum; therefore, the resulting supernatant contained a relatively enriched neuronal population (80-90% neurons). […]
The results obtained were similar in each experiment; FIG. 1A represents the data obtained from the second experiment. […] Neurite outgrowth was assessed by phase contrast microscopy. The number of neurite-bearing cells in a fixed area of the well was counted. […]

Data set [4] has as its system PrP. Conditions: hamster, in vivo.
In data set [5] the test system is β-PP mRNA. Briefly: β-protein precursor mRNA levels after NGF injection in neonatal hamsters. The class given is in vivo, hamster.
Data set [6] deals with PrP mRNA. The conditions noted are these: hamster, in vivo.
Data set [7] has as its system ChAT activity. The data set can be described thus: ChAT activity in brain regions after intraventricular NGF in neonatal hamsters. Conditions: for increase in septal ChAT activity relative to vehicle-injected animals: single 30 μg injection PD 7, sacrifice PD 9. The class given is in vivo, hamster. On the procedure: The birth of hamster litters was recorded as day zero. Hamsters were sacrificed at various postnatal ages and several brain regions were quickly dissected. The regions sampled included septum (basal forebrain), caudate-putamen, thalamus, hippocampus, frontolateral neocortex, and brainstem. Dissections were performed as described (Johnston et al, (1987) Neurochem Res 12:985-994). Subiculum was included with hippocampus. Caudal midbrain plus pons constituted the brainstem. For prenatal determinations,a timed-pregnancy animal was anesthetized with Nembutal (15 mg, i.p.) and individual embryos were removed and dissected. Whole forebrain was taken in place of frontolateral neocortex in prenatal animals. ChAT activity was determined in selected tissues as described (Mobley et al, (1985) Science 229:284-287).
NGF was prepared by ion-exchange chromatography and characterized as described in the first example. In experiments in which multiple injections were given, NGF (30 μg) was administered intraventricularly (Mobley et al, (1985) supra) on postnatal day (PD) 3, 5 and 7 and sacrifice was on PD 9. Vehicle-injected animals served as controls. In experiments in which a single injection was given, NGF (30 μg) was administered intraventricularly on PD 7 and animals were sacrificed on PD 9. Controls included animals treated with NGF (30 μg) denatured by reduction and carbamoylmethylation (Morris et al, (1971) Neurobiology 1:64-67), or injection vehicle alone.

For the molecule `NCCCC[C@H](NC(=O)CNC(=O)[C@@H](N)CCCCN)C(=O)N[C@@H](CCC(=O)O)C(N)=O` [C5, KGKE-NH2] (H-KGKE-NH2), the “effect on number of neurons bearing neurites in response to CNTF” value in data set [1] is on record as “no detectable effect”. In data set [2], the “initial quantity of peptide recovered after culture” value is 80-85%.

B1: NGF: purified from male mouse submaxillary gland; β-NGF is a dimer of two identical 118 amino acid chains (protein, UniProt P01139 122-241, looked up)
Beta-nerve growth factor: SSTHPVFHMGEFSVCDSVSVWVGDKTTATDIKGKEVTVLAEVNINNSVFRQYFFETKCRASNPVESGCRGIDSKHWNSYCTTTHTFVKALTTDEKQAAWRFIRIDTACVCVLSRKATRRG
modifications: beta-NGF
notes: purified from male mouse submaxillary gland; β-NGF is a dimer of two identical 118 amino acid chains
Regarding B1, the “concentration giving maximum neurite outgrowth” value in data set [3] was “approximately 800 pg/ml”. The “increase in PrP in septum (Western blot)” value in data set [4] was 3.3 fold. Also, the “increase in β-PP mRNA levels relative to vehicle-injected animals” value in data set [5] (single treatment on PD7, septum) is 4 fold. Further, in data set [5] (single treatment, FIG. 6), the “increase in β-PP in thalamus” value is listed as “no increase”. In data set [6], the “effect on PrP mRNA levels in hippocampus” value is given as “no effect”, the “effect on PrP mRNA levels in thalamus” value is given as “no effect”, the “increase in PrP mRNA in caudate-putamen relative to vehicle-injected animals” value is recorded as 70% and the “increase in septal PrP mRNA levels” value is reported as approximately 9 fold. In addition, in data set [6], the “increase in septal PrP mRNA relative to controls” value was “approximately 10 fold”. The “increase in septal ChAT activity” value in data set [7] (30 μg intraventricularly PD 3, 5, 7, sacrifice PD 9, FIG. 5A) is “increased almost two-fold”. Moreover, in data set [7], the “increase in septal ChAT activity relative to vehicle-injected animals” value stood at 100%. For the same molecule, the “septal ChAT activity (mean±SEM)” value in data set [7] (single 30 μg injection PD 7, sacrifice PD 9, n=4) is 44.0±5.0 nmol acetylcholine (ACh) formed/hr/mg protein. The “ChAT activity in caudate-putamen” value in data set [7] (single injection, n=3) is given as 92.4±6.3 nmol acetylcholine (ACh) forme. The “increase in ChAT activity in caudate-putamen” value in data set [7] (single injection, neonatal hamsters) is recorded as “approximately 65%”.

B2: NGF denatured by reduction and carbamoylmethylation: NGF (30 μg) denatured by reduction and carbamoylmethylation, used as control (protein, UniProt P01139 122-241, looked up)
Beta-nerve growth factor: SSTHPVFHMGEFSVCDSVSVWVGDKTTATDIKGKEVTVLAEVNINNSVFRQYFFETKCRASNPVESGCRGIDSKHWNSYCTTTHTFVKALTTDEKQAAWRFIRIDTACVCVLSRKATRRG
modifications: beta-NGF reduced and carbamoylmethylated (denatured)
notes: NGF (30 μg) denatured by reduction and carbamoylmethylation, used as control
In the case of B2, the “increase in septal PrP mRNA levels” value in data set [6] is “No increase”. For the same molecule, in data set [7], the “increase in septal ChAT activity relative to vehicle-injected animals” value is “No increase”.
